Data published in PMC11630639, “Real-time single-molecule imaging of CaMKII-calmodulin interactions” (Biophysical Journal, 2024).
One block for each molecule: values may come before it.

Assays:
[1] = molecular target: wheat germ rhodamine-calmodulin (r-CAM) (UniProt P04464); assay: single-molecule two-colour TIRFM, immobilised holoenzyme; conditions: reference: T287A holoenzyme (T306, T307 intact); sites T306,T307
[2] = molecular target: the molecule itself; assay: single-molecule stepwise photobleaching of Venus (TIRF microscopy); V-CaMKII held on a coverslip by GFP antibody; photobleaching steps in the Venus channel counted with a step-finder algorithm to give subunit stoichiometry (S_CaMKII)

other: τ+/τ− ratio [1]: stronger; reference 1.76
Molecule: CaMKIIβ (Venus-CaMKIIβ) (from UniProt P28652) T287A/T306A/T307A holoenzyme

B1: Venus-CaMKIIβ T287.306-307A holoenzyme (enzyme, mouse, UniProt P28652 1-542, looked up)
chain: MATTVTCTRFTDEYQLYEDIGKGAFSVVRRCVKLCTGHEYAAKIINTKKLSARDHQKLEREARICRLLKHSNIVRLHDSISEEGFHYLVFDLVTGGELFEDIVAREYYSEADASHCIQQILEAVLHCHQMGVVHRDLKPENLLLASKCKGAAVKLADFGLAIEVQGDQQAWFGFAGTPGYLSPEVLRKEAYGKPVDIWACGVILYILLVGYPPFWDEDQHKLYQQIKAGAYDFPSPEWDTVTPEAKNLINQMLTINPAKRITAHEALKHPWVCQRSTVASMMHRQEAVECLKKFNARRKLKGAILAAMLATRNFSVGRQTTAPATMSTAASGTTMGLVEQAKSLLNKKADGVKPQTNSTKNSSAITSPKGSLPPAALEPQTTVIHNPVDGIKESSDSTNTTIEDEDAKARKQEIIKTTEQLIEAVNNGDFEAYAKICDPGLTSFEPEALGNLVEGMDFHRFYFENLLAKNSKPIHTTILNPHVHVIGEDAACIAYIRLTQYIDGQGRPRTSQSEETRVWHRRDGKWQNVHFHCSGAPVAPLQ
notes: CaMKII β isoform with T to A substitutions at T287, T306 and T307; also called T287.T306.307A; phosphorylation-defective holoenzyme; source: E. coli BL21/Rosetta or BL21/C41, cotransformed with a protein phosphatase plasmid; copies: 14
binding result [2]: binds
